Experimental data: patent US20090325887A1 (BOARD OF TRUSTEES OF THE UNIVERSITY OF ILLINOIS, published 2009)

Key:
[1] = target: Cav3.1 channel (α3.1 subunit); assay: cell-based or functional assay
[2] = target: Cav1.2 channel (α1.2 subunit, with β2a); assay: cell-based or functional assay

Row | Binder | inhibition of Cav3.1 current at 30 µM peptide [1] [%] | inhibition of Cav1.2 current at 30 µM peptide [2] [%]
1 | LGLLFAFV [γ6 TM1a V45FI47F peptide] | 26.3 | –
2 | VGATLAVL [γ6 TM1b peptide] | 5.5 | 6.7
3 | LLILAVGV [γ6 TM1a SCR peptide] | – | 3.2
4 | FGFLVAIV [γ6 TM1a L41FL43F peptide] | 20.6 | –
5 | LTLLVAIV [γ6 TM1a G42T peptide] | 16.4 | –
6 | VGLFFALA [γ1 TM1a T12GI16A peptide] | – | 27.5
7 | LTTAGAFA [γ4 TM1a peptide] | -3.5 | -2.5
8 | VGLTLAVL [γ6 TM1b A50L peptide] | 15.8 | –
9 | VTLFFILA [γ1 TM1a peptide] | – | 15.5
